Results as given in US20250206839A1, “METHODS, COMPOSITIONS AND USES FOR SEMA7A MONOCLONAL ANTIBODIES” (THE REGENTS OF THE UNIVERSITY OF COLORADO, A BODY CORPORATE, priority 2022, published 2025).

Key:
[1] = biological target: T1, SEMA7A (Homo sapiens, UniProt O75326); experiment: Western blot binding on MCF7 control and SEMA7A OE cell lysates; settings: 200 μg/mL antibody
T1 construct: MCF7 cells endogenously express SEMA7A (75 kDa); endogenous in cells; host or cells: MCF7
T1 sequence (O75326 45-648): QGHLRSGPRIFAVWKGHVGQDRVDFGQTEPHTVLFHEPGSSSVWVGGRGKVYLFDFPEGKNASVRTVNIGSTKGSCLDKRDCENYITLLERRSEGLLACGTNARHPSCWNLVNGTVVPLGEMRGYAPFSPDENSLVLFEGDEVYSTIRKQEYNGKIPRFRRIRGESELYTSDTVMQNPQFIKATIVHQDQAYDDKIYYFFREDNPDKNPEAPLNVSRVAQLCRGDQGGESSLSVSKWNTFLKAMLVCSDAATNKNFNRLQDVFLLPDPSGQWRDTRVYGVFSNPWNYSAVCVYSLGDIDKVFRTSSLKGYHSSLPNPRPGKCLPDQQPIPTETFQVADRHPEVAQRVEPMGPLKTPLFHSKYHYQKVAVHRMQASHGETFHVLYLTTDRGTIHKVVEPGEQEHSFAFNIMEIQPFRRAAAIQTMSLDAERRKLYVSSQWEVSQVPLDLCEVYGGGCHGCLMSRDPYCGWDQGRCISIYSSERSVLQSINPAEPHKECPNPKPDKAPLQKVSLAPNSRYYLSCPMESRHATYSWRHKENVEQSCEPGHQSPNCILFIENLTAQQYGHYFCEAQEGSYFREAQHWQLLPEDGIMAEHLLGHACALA
Experimental: In another exemplary method, the ability of an anti-SEMA7A monoclonal antibody to bind to SEMATA was tested. In one exemplary method, CUH1 mAb was validated for binding to MCF7 SEMA7A over expressing cell lysate using Western Blot. Specifically. binding of the CUH1 mAb was detected on lysates from MCF7 control cells and SEMA7A overexpressing (OE) cells using 200 μg/mL of SmAbH1. MCF7 cells endogenously express SEMA7A (75 kDa) but OE cells were engineered to overexpress V5 tagged
MCF7 cells were lysed with RIPA containing EDTA (Thermo Scientific) and spun at 14K for 15 min. The supernatant was then quantitated using a Qubit Assay (Invitrogen) standard protocol and mixed 3:1 with Laemmli Sample Buffer (BioRad) with 2-mercaptoethanol and heated at 70 degrees for 10 min. 100 μg of lysate was loaded onto 4-20% Tris-Glycine gel (BioRad) and transferred to a PVDF membrane (Milipore). The membrane was blocked with 5% Bovine Serum Albumin (BSA) for 3 hours and then probed with 200 μg/ml of CUH1 in 5% BSA overnight at 4 degrees with gentle rocking. The membrane was washed three times 15 minutes with TBS-T and then probed with 10 ng/ml Goat Anti-Mouse IgG HRP (Abcam 97040) in 5% BSA for 1 hour at room temp. The membrane was washed and then incubated with 1:1 mix SuperSignal West Pico (Thermo Scientific) for 4 min at room temp.

[2] = biological target: T2, purified SEMA7A (Homo sapiens, UniProt O75326); experiment: ELISA binding to purified SEMA7A; settings: serial dilution
T2 construct: Fc; made in house; host or cells: cells stably transfected with SEMA7A-Fc plasmid (human breast cancer cells); purified from medium
T2 sequence (O75326 45-648 limits assumed): T1 sequence (O75326 45-648)
Experimental: The MultiSorp ELISA 96 well ELISA plate (Thermo Scientific) was coated with 100 μl per well of 50 μg/ml of purified SEMA7A in Coating Buffer A (Thermo Scientific CB07100) and allowed to attach overnight with gentle rocking at 4 degrees. For the peptide competition, half of the antibody was incubated in an Eppendorf tube overnight at a ratio of 1:10 with the SEMA7A peptide on a rotator at 4 degrees. The plate was washed with 200 μl per well of 1× wash buffer (Thermo Scientific WB01) and blocked with 200 μl 1× assay buffer (Thermo Scientific DS98200) for 2 hours and room temp with gentle rocking. 1× assay buffer was removed and a 200 μl serial dilution of SMEA7A mAb in 1× assay buffer was made from columns 1 through 9, with column 10-12 getting 1× assay buffer only. The plate was incubated overnight with gentle rocking at 4 degrees. The plate was washed twice with 200 μl of 1× wash buffer. 100 μl of 200 ng/ml Goat Anti-Mouse IgG HRP (Abcam 97040) in 1× assay buffer was added to columns 1-11, with column 12 getting 1× assay buffer only. The plate was incubated for 2 hours with gentle rocking at room temp. The plate was washed four times with 200 μl 1× wash buffer. 150 μl SuperSignal Femto for ELISA (Thermo Scientific) was mixed 1:1 added to each well and mixed for 1 min and then left to rock at room temperature for 30 minutes. The absorbance was read at 425 nm on a microplate reader.

[3] = tested on: pSTAT3 in MDA231 cells; experiment: Western blot for phosphorylation of STAT3; assay type: cell-based, human; settings: MDA231, high SEMA7A
Source text: (§1) In another exemplary method the human triple negative breast cancer cell lines with low (MDA468) or high (MDA231) levels of SEMATA were again treated with SmAbH1 (CUH1) or commercially available monoclonal antibody-based inhibitors of an integrin receptor for SEMA7A (α6β1) and then evaluated using Western blot for phosphorylation of STAT3 (pSTAT3).

[4] = tested on: pSTAT3 in MDA468 cells; experiment: Western blot for phosphorylation of STAT3; assay type: cell-based, human; settings: MDA468, low SEMA7A
Source text: as §1

B1: SmAbH1: mouse monoclonal antibody against SEMA7A generated using the 10-mer immunizing peptide … (SEQ ID NO: 2) (antibody, V domains shown)
VH: QVKLQESGTVLARPGASVKMSCKASVYSFTSYWMHWVKQRPGQGLEWIGAIYPGNSDTSYNQKFKGKAKLTAVTSASTAYMELSSLTNEDSAVYYCTRGGAPTMITAYYAMDYWGQGTSVTVSS
VL: DIQMTQTTSSLSASLGDRVTISCRASQDISNYLNWYQQKPDGTVKLLIYYTSRLHSGVPSRFSGSGSGTDYSLTISNLEQEDIATYFCQQGNTLPWTFGGGTKLEIKR
binding to SEMA7A in cell lysates [1]: successfully bound to both endogenous (75 kDa) and overexpressed (100 kDa) SEMA7A
binding to purified SEMA7A [2]: bound to purified SEMA7A in a dose dependent manner
downstream STAT3 activation (pSTAT3) [3]: blocking block downstream STAT3 activation similar to integrin blockade
downstream STAT3 activation (pSTAT3) [4]: blocking block downstream STAT3 activation similar to integrin blockade
